According to US20190367631A1 (Regeneron, published 2019):

Experiments:
[1] = target: T1, human MSR1 extracellular domain expressed with a N-terminal nonahistidine tag (human, UniProt P21757 77-451); assay: competition ELISA, plate-coated His9-hMSR1; 300 nM antibody, competitor ligand biot-AGE-BSA
T1 construct: extracellular domain; also called His9-hMSR1; His-hMSR1
T1 sequence: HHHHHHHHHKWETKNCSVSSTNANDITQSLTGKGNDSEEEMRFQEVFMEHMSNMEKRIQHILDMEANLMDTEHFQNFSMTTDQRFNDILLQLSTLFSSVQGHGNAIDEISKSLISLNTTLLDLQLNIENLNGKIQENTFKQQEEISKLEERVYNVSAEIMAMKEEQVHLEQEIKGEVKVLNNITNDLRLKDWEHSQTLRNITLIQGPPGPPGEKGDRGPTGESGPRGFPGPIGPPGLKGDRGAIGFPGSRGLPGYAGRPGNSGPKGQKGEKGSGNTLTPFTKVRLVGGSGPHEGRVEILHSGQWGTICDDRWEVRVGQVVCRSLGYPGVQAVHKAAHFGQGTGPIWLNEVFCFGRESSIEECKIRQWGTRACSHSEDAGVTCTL
Protocol: (§1) Buffer alone was also added to wells on each coat. […] This assay was conducted in four different assay runs.
(§2) Data analysis was performed using a sigmoidal dose-response model within Prism™ software (GraphPad).

[2] = target: T1, human MSR1 extracellular domain …; assay: competition ELISA, plate-coated His9-hMSR1; 100 nM antibody, competitor ligand Ac-LDL
Protocol: as §1, §2

[3] = target: T1, human MSR1 extracellular domain …; assay: competition ELISA, plate-coated His9-hMSR1; 1 µM antibody, competitor ligand 10 nM Ox-LDL
Protocol: as §1, §2

[4] = target: T2, mouse MSR1 extracellular domain expressed with a N-terminal nonahistidine tag (His9-mMSR1); R&D Systems, Cat … (mouse, UniProt P30204 79-458); assay: BLI Octet, 25 C, antibody captured
T2 construct: extracellular domain; not shown: N-terminal nonahistidine tag
T2 sequence (looked up): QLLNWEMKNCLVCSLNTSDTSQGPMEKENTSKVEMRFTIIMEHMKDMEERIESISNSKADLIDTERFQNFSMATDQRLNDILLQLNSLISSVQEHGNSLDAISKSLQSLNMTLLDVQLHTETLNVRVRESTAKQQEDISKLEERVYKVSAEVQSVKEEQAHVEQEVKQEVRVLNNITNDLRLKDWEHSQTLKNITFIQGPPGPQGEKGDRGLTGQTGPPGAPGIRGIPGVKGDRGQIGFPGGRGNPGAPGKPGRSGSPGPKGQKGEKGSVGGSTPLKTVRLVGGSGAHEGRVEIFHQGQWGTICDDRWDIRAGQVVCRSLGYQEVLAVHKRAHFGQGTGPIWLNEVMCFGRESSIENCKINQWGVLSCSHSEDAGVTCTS

[5] = target: T3, human MSR1 extracellular domain expressed with a N-terminal nonahistidine tag (His9-hMSR1); R&D Systems, Cat … (human, UniProt P21757 77-451); assay: SPR Biacore, 37 C, antibody captured
T3 construct: extracellular domain; also called His-hMSR1; 9xHis-hMSR1; not shown: N-terminal nonahistidine tag
T3 sequence (looked up): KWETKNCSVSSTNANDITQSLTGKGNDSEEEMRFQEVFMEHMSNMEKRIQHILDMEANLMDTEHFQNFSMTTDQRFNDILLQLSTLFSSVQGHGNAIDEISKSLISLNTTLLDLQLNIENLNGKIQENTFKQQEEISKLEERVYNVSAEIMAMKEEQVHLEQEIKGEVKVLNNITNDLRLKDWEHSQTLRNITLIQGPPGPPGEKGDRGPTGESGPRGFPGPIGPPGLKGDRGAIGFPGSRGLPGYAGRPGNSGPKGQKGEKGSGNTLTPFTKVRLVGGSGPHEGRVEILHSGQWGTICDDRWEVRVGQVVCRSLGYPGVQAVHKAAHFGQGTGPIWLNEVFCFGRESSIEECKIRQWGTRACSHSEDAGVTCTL

[6] = target: T4, monkey MSR1 extracellular domain expressed with a N-terminal hexahistidine-myc-myc tag (HMM-mfMSR1) (monkey (Macaca fascicularis)); assay: SPR Biacore, 37 C, antibody captured
T4 chain: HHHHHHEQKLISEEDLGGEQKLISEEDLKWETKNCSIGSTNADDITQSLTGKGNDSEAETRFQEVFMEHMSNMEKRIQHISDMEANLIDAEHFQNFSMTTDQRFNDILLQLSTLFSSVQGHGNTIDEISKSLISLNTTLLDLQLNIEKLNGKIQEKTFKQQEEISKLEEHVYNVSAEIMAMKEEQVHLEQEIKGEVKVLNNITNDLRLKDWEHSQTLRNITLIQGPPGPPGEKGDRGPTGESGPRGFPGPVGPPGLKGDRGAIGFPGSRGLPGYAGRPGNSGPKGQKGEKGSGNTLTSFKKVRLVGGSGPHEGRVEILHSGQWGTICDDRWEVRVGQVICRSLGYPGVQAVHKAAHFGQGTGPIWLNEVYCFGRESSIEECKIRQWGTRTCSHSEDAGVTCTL
Protocol: (§3) Binding affinities and kinetic constants of human anti-MSR1 antibodies for different MSR1 reagents were determined by real-time surface plasmon resonance (Biacore 4000). All binding studies were performed in 10 mM HEPES, 150 mM NaCl, 3 mM EDTA, and 0.05% v/v Surfactant Tween-20, pH 7.4 (HBS-ET) running buffer at 25° C. and 37° C.
(§4) The association rate (kₐ) and dissociation rate (kd) were determined by fitting the real-time binding sensorgrams to a 1:1 binding model with mass transport limitation using Scrubber 2.0c curve-fitting software. Binding dissociation equilibrium constant (KD) and dissociative half-life (t½) were calculated from the kinetic rates as:

[7] = target: T3, human MSR1 extracellular domain …; assay: SPR Biacore, 25 C, antibody captured;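 also: rates from 1:1 fit with mass transport limitation of real-time sensorgrams, HEPES-buffered saline with EDTA and Tween-20 at pH 7.4, KD and t½ derived from the kinetic rates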
Protocol: as §3, §4

[8] = target: T4, monkey MSR1 extracellular domain …; assay: SPR Biacore, 25 C, antibody captured;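 also: rates from 1:1 fit with mass transport limitation of real-time sensorgrams, HEPES-buffered saline with EDTA and Tween-20 at pH 7.4, KD and t½ derived from the kinetic rates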
Protocol: as §3, §4

| Binder | % Blocking [1] [%] | % Blocking [2] [%] | % Blocking [3] [%] | binding result [4] | Kd [5] [nM] | koff [5] [s⁻¹] | kon [5] [M⁻¹ s⁻¹] | t½ [5] [min] | Kd [6] [nM] | koff [6] [s⁻¹] | kon [6] [M⁻¹ s⁻¹] | t½ [6] [min] | Kd [7] [nM] | koff [7] [s⁻¹] | kon [7] [M⁻¹ s⁻¹] | t½ [7] [min] | Kd [8] [nM] | koff [8] [s⁻¹] | kon [8] [M⁻¹ s⁻¹] | t½ [8] [min] |
| --- | --- | --- | --- | --- | --- | --- | --- | --- | --- | --- | --- | --- | --- | --- | --- | --- | --- | --- | --- | --- |
| H1H27766P2-N297Q (antibody, V domains shown, Human IgG1 Fc with N297Q; also called H1H27766P-N297Q) VH: EVQLVESGGGLVQPGGSLRLSCAASGFTFSSFAMSWVRQAPGKELEWVSSISGRGGSTYYADSVRGRFTISRDNSKITLYLQMNSLRAEDTAVYYCAKDIVFRYTSSAYWYFDLWGRGTLVTVSS VL: not shown | 27 | 52 | 54 |  |  |  |  |  |  |  |  |  |  |  |  |  |  |  |  |  |
| H1H27729P-N297Q (antibody, V domains shown, Human IgG1 Fc with N297Q) VH: QVQLVESGGGLVKPGGSLRLSCAASGFIFSDYYMSWIRQAPGKGLEWVSYISSSGTTIYGDSVKGRFTMSRDNAKNSLYLQMNSLRAEDTAVYYCARNYALFDYWGQGTLVTVSS VL: DIQMTQSPSSLSASVGDRVTITCQASQDISKYLNWYQQKPGKAPKLLIYYTSNLETGVPSRFSGSGSGTDFTFTISSLQPEDIATYYCHQSDYLPFTFGPGTKVDIKR | 15 | 8 | 36 |  |  |  |  |  |  |  |  |  |  |  |  |  |  |  |  |  |
| H1H27731P-N297Q (antibody, V domains shown, Human IgG1 Fc with N297Q) VH: QLQLQESGPGLVKPSETLSLTCTVSGGSISRISYYWGWIRQPPGKGLEWIGSIYDSGSTYYNPSLKSRVTISIDTSKNQFSLKLSSVTAADTAVYYCVRYSSSSAFAFDYWGQGTLVTVSS VL: DIQMTQSPSSVSASVGDRVTITCRASQGISSWLAWYQQKPGKAPKLLIYAASSLQSGVPSRFSGSGSGTDFTLTISSLQPEDFATYYCQQANSFPFTFGPGTKVDIKR | 4 | -41 | -1 |  |  |  |  |  |  |  |  |  |  |  |  |  |  |  |  |  |
| H1H27773P2-N297Q (antibody, human IgG1, V domains shown, Human IgG1 Fc with N297Q; also called H1H27773P-N297Q) VH: EVQLVESGGGLVQPGGSLRLSCAASGFTFSSYAMNWVRQAPGKGLEWVSAISGSGDSTYYADSVKGRFTISRDNSRTTLSLQLNSLRAEDTAVYYCAKDRLLWFGELGSPFHYWGQGTLVTVSS VL: not shown | 1 |  | 2 |  |  |  |  |  |  |  |  |  |  |  |  |  |  |  |  |  |
| H1H27734P-N297Q (antibody, V domains shown, Human IgG1 Fc with N297Q point mutation) VH: EVQLVESRGGLVQPGGSLRLSCAASGFTFSSYAMSWVRQAPGKGLEWVSAISGSGGSTFYADSVKGRFTISRDNSKNTVYLQMNSLRAEDTAVYYCAKALVLRFLEWLGDYWGQGTLVTVSS VL: DIQMTQSPSTLSASVGDRVTITCRASQSISSWLAWFQQKPGKAPKLLIYKASSLESGVPSRFSGSGSGTEFTLTISSLQPDDFATYYCQQYKSYWTFGQGTKVEIKR |  |  |  | no binding (tested: 50 nM) | 1.74 | 0.0019 | 1.09e+06 | 6 | 3.37 | 0.0032 | 949000 | 4 | 2.64 | 0.00111 | 420000 | 10 | 6.88 | 0.00291 | 423000 | 4 |
| H1H27739P-N297Q (antibody, V domains shown, Human IgG1 Fc with N297Q point mutation) VH: EVQLVESGGGLVQPGGSLRLSCTASGFTFSSYAMSWVRQAPGKGLEWVSAISGTGSSTYFTDSVKGRFAISRDNSKNTLYLQMNSLRAEDTAVYYCAKDGEWLSTVTLFDYWGQGTLVTVSS VL: EIVMTQSPATLSVSPGERATLSCRASQSVSSNLAWYQQKPGQAPRLLIYGASTRATGIPARFSGSGSGTDFTLTISSLQSEDFALYYCQQYFIWPPHPTFGPGTKVDIKR |  |  |  | no binding (tested: 50 nM) | 3.72 | 0.00288 | 776000 | 4 | 0.374 | 0.000842 | 2.25e+06 | 14 | 2.74 | 0.00103 | 375000 | 11 | 0.41 | 0.000144 | 352000 | 80 |
| H1H27756P-N297Q (antibody, V domains shown, Human IgG1 Fc with N297Q point mutation) VH: QVQLVESGGGVVQPGRSLRLSCAASGFTFSNYDMHWVRQAPGKGLEWMAVISYDGINKYYADSVKGRFTISRDNSKNTLYLQMNSLRAEDTAVYYCAKGTYSWYFDLWGRGTLVTVSS VL: not shown |  |  |  | no binding (tested: 50 nM) | 1.16 |  |  | 15 | 3.97 |  |  | 4 | 0.406 |  |  | 94 | 6.81 |  |  | 5 |
| H1H27760P-N297Q (antibody, V domains shown, Human IgG1 Fc with N297Q; tied by the numerical identifier; also called H1H27760P2-N297Q; H1H27760P2) VH: EVQLVESGGGLVQPGRSLRLSCAASGFTFDAYAMHWVRQAPGKGLEWVSGISWNSGSIGYADSVKGRFTISRDNAKNSLYLQMNSLREEDTALYYCAKDKILELYYYGMDVWGQGTTVTVSS VL: not shown |  |  |  | no binding (tested: 50 nM) | 1.74 |  |  | 6 |  |  |  | 7 | 2 |  |  | 13 | 1.93 |  |  | 16 |
| H1H27759P-N297Q (antibody, V domains shown, Human IgG1 Fc with N297Q; tied by the numerical identifier; also called H1H27759P2-N297Q; H1xH27759P2) VH: EVQLVESGGGFVQPGGSLRLSCAASGFTFSSYAMSWVRQAPGKGLEWVSAISGTGSNTYYADSVKGRFTISRDNSKNTLYLQMNSLRAEDTAVYYCAKDRVTTVTYYFDYWGQGTLVTVSS VL: not shown |  |  |  | no binding (tested: 50 nM) | 2.24 | 0.0023 | 1.03e+06 | 5 | 1.28 | 0.00188 | 1.46e+06 | 6 | 2.03 | 0.00122 | 599000 | 9 | 2.2 | 0.000919 | 417000 | 13 |
| H1H27762P-N297Q (antibody, V domains shown, Human IgG1 Fc with N297Q; tied by the numerical identifier; also called H1H27762P2-N297Q; H1H27762P2) VH: QVQLVQSGAEVKKPGSSVKVSCKASGGTFSRYDISWVRQAPGQGLEWMGGIIPIFGTSNYAQKFQGRVTITTDESTSTVYMELSSLRSEDTAVYYCARGGRYGWFDPWGQGTLVTVSS VL: not shown |  |  |  | no binding (tested: 50 nM) | 0.64 | 0.00196 | 3.06e+06 | 6 | 0.698 | 0.00197 | 2.82e+06 | 6 | 1.85 | 0.00183 | 989000 | 6 | 1.59 | 0.00199 | 1.25e+06 | 6 |
| H1H27766P-N297Q (antibody, V domains shown, Human IgG1 Fc with N297Q; tied by the numerical identifier; also called H1H27766P2-N297Q; H1H27766P2) VH: EVQLVESGGGLVQPGGSLRLSCAASGFTFSSFAMSWVRQAPGKELEWVSSISGRGGSTYYADSVRGRFTISRDNSKITLYLQMNSLRAEDTAVYYCAKDIVFRYTSSAYWYFDLWGRGTLVTVSS VL: not shown |  |  |  | no binding (tested: 50 nM) | 0.227 | 7.72e-05 | 340000 | 150 | 1.72 | 0.000589 | 343000 | 20 | 0.0796 | 1.86e-05 | 234000 | 620 | 0.506 | 7.94e-05 | 157000 | 145 |
